Assay results as given in US20170088603A1.

Each substance was assayed against Human FcRn with human β2M on MDCK II clone 15 cells (human) (UniProt P55899) (assay: not given).
Human FcRn with human β2M on MDCK II clone 15 cells (human), sequence (P55899 24-365, chain 1 of 2): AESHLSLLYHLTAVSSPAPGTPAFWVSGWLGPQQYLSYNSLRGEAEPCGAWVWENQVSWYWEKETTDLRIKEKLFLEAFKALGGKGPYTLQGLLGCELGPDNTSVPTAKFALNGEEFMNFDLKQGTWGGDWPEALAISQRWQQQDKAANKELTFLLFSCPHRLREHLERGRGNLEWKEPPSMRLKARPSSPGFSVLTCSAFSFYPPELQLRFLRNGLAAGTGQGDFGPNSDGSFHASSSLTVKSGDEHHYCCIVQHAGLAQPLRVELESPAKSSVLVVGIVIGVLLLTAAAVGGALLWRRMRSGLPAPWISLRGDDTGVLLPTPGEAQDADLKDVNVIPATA
Human FcRn with human β2M on MDCK II clone 15 cells (human), sequence (P61769 21-119, chain 2 of 2, further chain): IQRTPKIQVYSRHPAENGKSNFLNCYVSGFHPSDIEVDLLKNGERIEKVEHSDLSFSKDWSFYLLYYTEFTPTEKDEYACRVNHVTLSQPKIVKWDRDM

IgG4 Fc IgM tp L309, sequence (P01861 other isoform, or with tags, fused parts or gaps limits assumed): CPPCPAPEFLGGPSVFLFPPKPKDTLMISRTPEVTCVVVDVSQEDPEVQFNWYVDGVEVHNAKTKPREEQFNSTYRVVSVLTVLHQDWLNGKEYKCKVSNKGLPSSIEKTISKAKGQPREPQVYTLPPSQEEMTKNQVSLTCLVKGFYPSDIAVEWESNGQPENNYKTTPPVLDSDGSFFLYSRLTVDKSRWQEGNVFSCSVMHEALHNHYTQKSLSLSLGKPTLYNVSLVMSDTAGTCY

Row | Substance | EC50, inhibition of FcRn mediated IgG recycling (cell lysates), percentage inhibition relative to the positive control; blocked ligand biotinylated human IgG [upper panel (cell lysates]
1 | IgG1 Fc IgM tp L309 (from UniProt P0DOX5 228-449) (Fc fusion) | 0.37 µg/mL

These substances were tested against Human FcRn with human β2M on MDCK II clone 15 cells (human) (UniProt P55899) (assay: cell-based or functional assay).

Row | Substance | Blockade of IgG intracellular uptake EC50 | Blockade of IgG recycling EC50 | Blockade of IgG recycling (% inhibition at 100 µg/ml)
2 | IgG1 Fc IgM tp L309 (from UniProt P0DOX5 228-449) (Fc fusion) | 4.4 µg/mL | 0.33 µg/mL | 
3 | IgG1 IgM tail-piece, T307A (Fc fusion) | 0.54 µg/mL | 0.35 µg/mL | 
4 | IgG4 Fc IgM tp L309 (from UniProt P01861 106-325) (Fc fusion) | 5.9 µg/mL | 1 µg/mL | 
5 | IgG4 IgM tail-piece, T307A (Fc fusion) | 0.5 µg/mL |  | 
6 | IgG1 IgM tail-piece, V308F (Fc fusion) | 0.12 µg/mL | 0.073 µg/mL | 
7 | IgG4 IgM tail-piece, V308F (Fc fusion) | 0.42 µg/mL | 0.56 µg/mL | 
8 | IgG4 IgM tail-piece, V308P (Fc fusion) | 0.51 µg/mL | 0.42 µg/mL | 
9 | IgG1 IgM tail-piece, H310L (Fc fusion) |  |  | 45
10 | IgG1 IgM tail-piece, V308P (Fc fusion) | 0.34 µg/mL | 0.55 µg/mL | 
